FireProtDB (doi:10.1016/j.jmb.2006.03.027)
“And” between values parts separate entries of the source, which are not always exact repeats. Equal entries are not always repeated.

Conditions: Saccharomyces cerevisiae (strain ATCC 204508 / S288c); pH 7; Thermal; CD; potassium phosphate 25 mM; reversible: Yes; whole UniProt chain shown

B1: GrpE protein homolog, mitochondrial wild type, P38523 (protein)
chain: MRAFSAATVRATTRKSFIPMAPRTPFVTPSFTKNVGSMRRMRFYSDEAKSEESKENNEDLTEEQSEIKKLESQLSAKTKEASELKDRLLRSVADFRNLQQVTKKDIQKAKDFALQKFAKDLLESVDNFGHALNAFKEEDLQKSKEISDLYTGVRMTRDVFENTLRKHGIEKLDPLGEPFDPNKHEATFELPQPDKEPGTVFHVQQLGFTLNDRVIRPAKVGIVKGEEN
- Tm: 53.2 °C and 52.5 °C and 52.4 °C
